Measured values reported in PMC5674887.

Columns and labels:
[1] = molecular target: cNup98 (cysteine-tagged FG domain of human Nup98) (human) (UniProt P52948); experiment: SPR
[2] = molecular target: cNup153 (cysteine-tagged FG domain of human Nup153) (human) (UniProt P49790); experiment: SPR
[3] = molecular target: cNup214 (cysteine-tagged FG domain of human Nup214) (human) (UniProt P35658); experiment: SPR
[4] = molecular target: cNup62 (cysteine-tagged FG domain of human Nup62) (human) (UniProt P37198); experiment: SPR
Sequence of cNup62 (cysteine-tagged FG domain of human Nup62) (human) (P37198 whole entry, the tested form may be a part): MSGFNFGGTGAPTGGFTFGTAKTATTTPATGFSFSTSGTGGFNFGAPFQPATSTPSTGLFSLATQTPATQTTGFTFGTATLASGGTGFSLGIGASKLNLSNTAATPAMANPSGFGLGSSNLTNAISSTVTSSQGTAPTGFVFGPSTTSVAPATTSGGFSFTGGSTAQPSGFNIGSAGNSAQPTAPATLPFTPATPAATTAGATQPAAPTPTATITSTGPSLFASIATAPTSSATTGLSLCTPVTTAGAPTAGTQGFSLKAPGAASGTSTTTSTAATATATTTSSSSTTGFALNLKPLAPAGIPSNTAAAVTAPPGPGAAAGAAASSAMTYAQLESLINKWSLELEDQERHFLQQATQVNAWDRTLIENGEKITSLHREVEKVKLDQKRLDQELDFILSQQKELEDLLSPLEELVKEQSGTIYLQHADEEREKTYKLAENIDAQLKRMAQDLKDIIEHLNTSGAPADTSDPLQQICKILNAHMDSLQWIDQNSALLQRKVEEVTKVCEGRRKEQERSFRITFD

karyopherinβ1 (human) = karyopherinβ1 (human) (UniProt Q14974); experiment: ITC
Sequence of karyopherinβ1 (human) (Q14974 whole entry): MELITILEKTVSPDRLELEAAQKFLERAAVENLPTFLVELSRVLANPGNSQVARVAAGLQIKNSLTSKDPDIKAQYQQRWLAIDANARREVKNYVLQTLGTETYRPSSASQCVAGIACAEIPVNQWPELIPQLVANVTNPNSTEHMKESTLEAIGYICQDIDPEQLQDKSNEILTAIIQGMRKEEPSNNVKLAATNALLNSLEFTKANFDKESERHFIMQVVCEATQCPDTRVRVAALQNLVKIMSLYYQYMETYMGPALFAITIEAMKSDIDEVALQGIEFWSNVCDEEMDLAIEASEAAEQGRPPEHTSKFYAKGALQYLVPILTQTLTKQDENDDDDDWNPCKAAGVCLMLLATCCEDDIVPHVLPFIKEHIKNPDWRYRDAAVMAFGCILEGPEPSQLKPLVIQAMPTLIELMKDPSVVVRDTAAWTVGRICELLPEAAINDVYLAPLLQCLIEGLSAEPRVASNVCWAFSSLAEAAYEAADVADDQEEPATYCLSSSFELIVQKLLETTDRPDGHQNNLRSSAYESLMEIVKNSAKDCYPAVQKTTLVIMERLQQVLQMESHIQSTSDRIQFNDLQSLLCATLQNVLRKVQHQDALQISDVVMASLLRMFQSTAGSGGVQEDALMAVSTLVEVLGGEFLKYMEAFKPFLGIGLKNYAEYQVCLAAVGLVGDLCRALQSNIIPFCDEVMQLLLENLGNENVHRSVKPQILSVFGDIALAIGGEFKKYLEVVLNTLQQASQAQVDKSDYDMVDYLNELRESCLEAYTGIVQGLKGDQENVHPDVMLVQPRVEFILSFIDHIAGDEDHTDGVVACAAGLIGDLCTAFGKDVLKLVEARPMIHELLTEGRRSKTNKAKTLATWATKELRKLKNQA

Sequence of cNup153 (cysteine-tagged FG domain of human Nup153) (human) (P49790 whole entry, the tested form may be a part): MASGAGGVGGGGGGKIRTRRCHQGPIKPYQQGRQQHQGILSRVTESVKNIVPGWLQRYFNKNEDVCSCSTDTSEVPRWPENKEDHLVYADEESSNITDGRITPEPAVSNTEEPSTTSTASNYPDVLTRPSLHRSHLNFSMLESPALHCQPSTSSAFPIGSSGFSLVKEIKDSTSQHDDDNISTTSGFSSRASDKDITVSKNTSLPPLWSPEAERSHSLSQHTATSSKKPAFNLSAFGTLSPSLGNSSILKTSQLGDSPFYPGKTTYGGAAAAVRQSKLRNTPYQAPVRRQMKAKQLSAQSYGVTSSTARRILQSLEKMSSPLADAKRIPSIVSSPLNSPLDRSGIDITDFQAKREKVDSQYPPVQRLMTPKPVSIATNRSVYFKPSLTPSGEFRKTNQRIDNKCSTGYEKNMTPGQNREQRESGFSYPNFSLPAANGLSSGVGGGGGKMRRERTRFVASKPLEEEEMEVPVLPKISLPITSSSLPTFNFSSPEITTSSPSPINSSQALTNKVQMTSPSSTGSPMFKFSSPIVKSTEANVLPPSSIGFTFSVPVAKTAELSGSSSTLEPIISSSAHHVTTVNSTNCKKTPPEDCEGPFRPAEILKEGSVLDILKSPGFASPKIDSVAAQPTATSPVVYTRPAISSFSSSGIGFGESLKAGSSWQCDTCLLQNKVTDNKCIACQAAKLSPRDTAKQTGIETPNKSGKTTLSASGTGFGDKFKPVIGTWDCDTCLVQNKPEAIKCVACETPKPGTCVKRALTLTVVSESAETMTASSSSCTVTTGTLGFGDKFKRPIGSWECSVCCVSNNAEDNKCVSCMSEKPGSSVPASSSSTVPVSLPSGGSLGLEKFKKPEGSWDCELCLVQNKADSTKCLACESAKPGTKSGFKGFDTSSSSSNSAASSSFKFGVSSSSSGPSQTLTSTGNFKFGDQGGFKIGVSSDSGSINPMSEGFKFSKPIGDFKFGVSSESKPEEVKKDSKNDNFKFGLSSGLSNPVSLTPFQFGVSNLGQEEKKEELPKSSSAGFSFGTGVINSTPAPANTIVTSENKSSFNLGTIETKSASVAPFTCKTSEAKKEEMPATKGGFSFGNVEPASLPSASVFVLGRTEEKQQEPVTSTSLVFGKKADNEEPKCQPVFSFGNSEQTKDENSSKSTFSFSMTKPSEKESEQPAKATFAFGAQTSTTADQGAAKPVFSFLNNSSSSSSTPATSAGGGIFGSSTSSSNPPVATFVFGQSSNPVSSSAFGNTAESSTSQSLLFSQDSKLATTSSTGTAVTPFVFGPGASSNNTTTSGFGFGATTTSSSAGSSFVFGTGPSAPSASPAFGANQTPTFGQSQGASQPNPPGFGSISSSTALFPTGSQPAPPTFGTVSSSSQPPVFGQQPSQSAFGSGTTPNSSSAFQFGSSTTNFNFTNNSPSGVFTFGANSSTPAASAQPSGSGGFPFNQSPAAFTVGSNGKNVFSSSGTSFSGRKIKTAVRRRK
Sequence of cNup98 (cysteine-tagged FG domain of human Nup98) (human) (P52948 whole entry, the tested form may be a part): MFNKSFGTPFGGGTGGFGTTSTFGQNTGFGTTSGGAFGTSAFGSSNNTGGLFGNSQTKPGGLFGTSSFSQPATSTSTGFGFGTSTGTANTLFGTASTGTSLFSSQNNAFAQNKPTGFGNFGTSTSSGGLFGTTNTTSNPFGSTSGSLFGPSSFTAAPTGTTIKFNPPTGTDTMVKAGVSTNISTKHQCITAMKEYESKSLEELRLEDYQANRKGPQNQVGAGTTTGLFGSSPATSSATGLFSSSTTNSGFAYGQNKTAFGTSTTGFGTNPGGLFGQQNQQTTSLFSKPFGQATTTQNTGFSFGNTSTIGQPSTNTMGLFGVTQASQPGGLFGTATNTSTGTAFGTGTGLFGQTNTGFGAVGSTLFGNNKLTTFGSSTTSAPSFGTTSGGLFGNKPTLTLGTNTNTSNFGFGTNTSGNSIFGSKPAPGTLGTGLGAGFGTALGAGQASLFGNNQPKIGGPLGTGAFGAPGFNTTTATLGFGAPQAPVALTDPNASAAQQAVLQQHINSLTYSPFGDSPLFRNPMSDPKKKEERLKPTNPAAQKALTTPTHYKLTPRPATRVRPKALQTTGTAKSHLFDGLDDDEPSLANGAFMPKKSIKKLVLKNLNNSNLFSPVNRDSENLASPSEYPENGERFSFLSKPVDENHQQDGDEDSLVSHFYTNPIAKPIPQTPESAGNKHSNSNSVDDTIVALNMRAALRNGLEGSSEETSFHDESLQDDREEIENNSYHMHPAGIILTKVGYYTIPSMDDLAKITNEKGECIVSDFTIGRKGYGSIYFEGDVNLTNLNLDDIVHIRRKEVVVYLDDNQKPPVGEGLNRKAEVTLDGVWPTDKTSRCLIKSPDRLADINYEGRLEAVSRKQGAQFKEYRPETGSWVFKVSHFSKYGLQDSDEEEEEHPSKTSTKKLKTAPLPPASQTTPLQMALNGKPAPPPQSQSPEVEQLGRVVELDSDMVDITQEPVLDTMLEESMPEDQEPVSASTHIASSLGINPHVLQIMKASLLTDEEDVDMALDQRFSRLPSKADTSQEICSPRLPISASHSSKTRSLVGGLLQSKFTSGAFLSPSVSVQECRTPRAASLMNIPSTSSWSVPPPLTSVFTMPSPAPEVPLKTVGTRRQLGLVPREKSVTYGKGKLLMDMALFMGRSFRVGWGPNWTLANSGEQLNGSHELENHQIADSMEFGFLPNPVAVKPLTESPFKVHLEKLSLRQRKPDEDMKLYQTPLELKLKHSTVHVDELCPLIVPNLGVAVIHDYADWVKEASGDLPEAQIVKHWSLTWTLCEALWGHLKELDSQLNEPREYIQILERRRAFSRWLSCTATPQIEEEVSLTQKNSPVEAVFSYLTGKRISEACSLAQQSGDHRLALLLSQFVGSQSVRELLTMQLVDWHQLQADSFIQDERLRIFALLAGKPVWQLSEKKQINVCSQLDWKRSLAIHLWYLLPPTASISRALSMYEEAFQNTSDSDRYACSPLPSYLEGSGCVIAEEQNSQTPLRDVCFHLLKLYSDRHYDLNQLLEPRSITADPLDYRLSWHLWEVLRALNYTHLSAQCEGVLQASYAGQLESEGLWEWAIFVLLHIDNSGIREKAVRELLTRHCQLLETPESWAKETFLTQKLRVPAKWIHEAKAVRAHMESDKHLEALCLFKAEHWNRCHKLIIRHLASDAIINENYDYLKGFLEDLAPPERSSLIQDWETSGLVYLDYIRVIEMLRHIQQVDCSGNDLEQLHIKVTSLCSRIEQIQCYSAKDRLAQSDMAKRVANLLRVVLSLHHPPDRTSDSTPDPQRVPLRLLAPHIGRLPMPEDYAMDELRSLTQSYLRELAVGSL

Kapα·Kapβ1 (from UniProt P52292;Q14974) (complex)
fold higher affinity than Kapβ1 and RanGTP·Kapβ1 (strong binding phase) [1]: 10 fold | fold higher affinity than Kapβ1 and RanGTP·Kapβ1 (strong binding phase) [2]: 10 fold | fold higher affinity than Kapβ1 and RanGTP·Kapβ1 (strong binding phase) [3]: 10 fold | fold higher affinity than Kapβ1 and RanGTP·Kapβ1 (strong binding phase) [4]: 10 fold

RanGTP (from UniProt P62826 1-216) (natural protein)
Kd (karyopherinβ1 (human)): 35 nM

karyopherinα (from UniProt P52292 1-529) (natural protein)
Kd (karyopherinβ1 (human)): 210 nM | Kd [2]: 1300 nM
